Laboratory results as given in patent publication US20120114659A1.

Molecular target: human NPRA on HEK cells, without ligand (human) (UniProt P16066)
Test: cell-based or functional assay

human NPRA on HEK cells, without ligand (human), sequence (P16066 33-1061 limits assumed): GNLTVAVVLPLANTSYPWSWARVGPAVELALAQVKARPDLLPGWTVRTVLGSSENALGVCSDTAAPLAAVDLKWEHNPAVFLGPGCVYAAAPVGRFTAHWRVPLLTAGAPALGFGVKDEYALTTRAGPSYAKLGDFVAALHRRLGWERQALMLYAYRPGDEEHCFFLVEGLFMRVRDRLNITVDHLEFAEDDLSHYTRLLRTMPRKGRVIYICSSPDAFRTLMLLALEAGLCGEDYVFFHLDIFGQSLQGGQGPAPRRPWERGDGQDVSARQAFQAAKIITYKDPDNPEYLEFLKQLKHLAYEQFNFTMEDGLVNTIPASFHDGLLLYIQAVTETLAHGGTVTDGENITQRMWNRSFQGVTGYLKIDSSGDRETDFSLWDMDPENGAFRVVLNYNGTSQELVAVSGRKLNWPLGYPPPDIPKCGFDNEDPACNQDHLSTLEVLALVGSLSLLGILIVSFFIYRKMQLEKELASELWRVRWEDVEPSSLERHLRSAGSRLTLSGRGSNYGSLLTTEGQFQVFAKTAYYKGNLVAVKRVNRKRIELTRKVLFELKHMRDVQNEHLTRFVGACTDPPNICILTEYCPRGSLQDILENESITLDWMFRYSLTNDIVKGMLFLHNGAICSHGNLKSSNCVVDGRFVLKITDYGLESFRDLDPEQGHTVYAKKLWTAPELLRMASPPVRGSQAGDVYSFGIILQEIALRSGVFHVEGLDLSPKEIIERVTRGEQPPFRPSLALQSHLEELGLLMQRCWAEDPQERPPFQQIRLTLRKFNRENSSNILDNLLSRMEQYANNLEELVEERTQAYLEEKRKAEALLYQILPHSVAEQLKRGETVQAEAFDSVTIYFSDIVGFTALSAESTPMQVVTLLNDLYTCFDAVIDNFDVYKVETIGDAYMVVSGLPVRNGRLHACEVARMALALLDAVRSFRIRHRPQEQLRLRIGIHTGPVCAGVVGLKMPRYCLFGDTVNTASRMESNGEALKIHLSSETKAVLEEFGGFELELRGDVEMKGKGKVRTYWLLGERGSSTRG
BNP (B-type natriuretic peptide), sequence (P16860 103-134): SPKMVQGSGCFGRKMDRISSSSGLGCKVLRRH

“BNP (B-type natriuretic peptide) (from UniProt P16860 103-134)” showed an EC50 of BNP for cGMP production in HEK NPRA cells in presence of 400 nM Fab 5504 of 18 nM and an EC50 of BNP for cGMP production in HEK NPRA cells in presence of 400 nM negative control Fab of 90 nM.
